Reference: patent US20180371051A1 (published 2018)

Columns and labels:
[1] = target: T1, soluble, wild-type MICA (human, UniProt Q29983 24-299); assay: SPR; Two State Reaction model
T1 chain: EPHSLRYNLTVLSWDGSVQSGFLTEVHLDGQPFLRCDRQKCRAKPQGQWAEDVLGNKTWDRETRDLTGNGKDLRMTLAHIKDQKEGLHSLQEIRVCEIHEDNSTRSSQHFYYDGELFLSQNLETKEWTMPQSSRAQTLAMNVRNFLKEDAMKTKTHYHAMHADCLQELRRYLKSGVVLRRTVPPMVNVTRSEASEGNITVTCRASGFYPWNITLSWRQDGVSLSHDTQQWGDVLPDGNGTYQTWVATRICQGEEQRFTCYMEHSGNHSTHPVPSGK

[2] = target: T1, soluble, wild-type MICA; assay: SPR
[3] = target: T1, soluble, wild-type MICA; assay: SPR; 1:1 binding model

B1: NKG2D^scd7 (heptamerized single-chain NKG2D dimer, Example 2) (receptor)
chain: GSRSAGAHAGWETPEGCEQVLTGKRLMQCLPNPEDVKMALEVYKLSLEIEQLELQRDSARQSTLDKELNQEVQIPLTESYCGPCPKNWICYKNNCYQFFDESKNWYESQASCMSQNASLLKVYSKEDQDLLKLVKSYHWMGLVHIPTNGSWQWEDGSILSPNLLTIIEMQKGDCALYASSFKGYIENCSTPNTYICMQRTVQIPLTESYCGPCPKNWICYKNNCYQFFDESKNWYESQASCMSQNASLLKVYSKEDQDLLKLVKSYHWMGLVHIPTNGSWQWEDGSILSPNLLTIIEMQKGDCALYASSFKGYIENCSTPNTYICMQRTV
modifications: FITC-conjugated for flow cytometry (two fluorophores per protomer)
[1]
  Kd: 9.72 nM
[2]
  Kd: 4.6 nM
[3]
  Kd: 4.6 nM

B2: NKG2D^scd (single-chain dimer form of NKG2D) (receptor)
chain: NQEVQIPLTESYCGPCPKNWICYKNNCYQFFDESKNWYESQASCMSQNASLLKVYSKEDQDLLKLVKSYHWMGLVHIPTNGSWQWEDGSILSPNLLTIIEMQKGDCALYASSFKGYIENCSTPNTYICMQRTVQIPLTESYCGPCPKNWICYKNNCYQFFDESKNWYESQASCMSQNASLLKVYSKEDQDLLKLVKSYHWMGLVHIPTNGSWQWEDGSILSPNLLTIIEMQKGDCALYASSFKGYIENCSTPNTYICMQRTV
[2]
  Kd: 13.8 nM
